{
  "source": "the DeepSol protein solubility set",
  "data": [
    {"assay": "soluble on expression in E. coli; label from the status in PepcDB or PDB records", "values": [
      {"sequence": "MITYKNILIAVDGSHEAEWAFNRAVGVAKRNDAKLTIVNVIDSRTYSSYEVYDAQFTEKSKHFAEELLNGYKEVATNAGVKDVETRLEFGSPKSIIPKKLAHEINADLIMSGTSGLNAVERFIVGSVSESIVRHAPCDVLVVRTEELPADFQPQVATTQLREKYQN", "soluble on expression in E. coli": "not soluble"},
      {"sequence": "MIVPEVSSSSTNEANVPESSAGKYTYKDIRDDRVLTYFDLRRGESKTFTVRLQATYAGNFILPAIQCEAMYDAAVQARTKAGRTTVSR", "soluble on expression in E. coli": "not soluble"},
      {"sequence": "MIVSMIAALANNRVIGLDNKMPWHLPAELQLFKRATLGKPIVMGRNTFESIGRPLPGRLNIVLSRQTDYQPEGVTVVATLEDAVVAAGDVEELMIIGGATIYNQCLAAADRLYLTHIELTTEGDTWFPDYEQYNWQEIEHESYAADDKNPHNYRFSLLERVK", "soluble on expression in E. coli": "soluble"},
      {"sequence": "MIVVSGSQSQNLAFKVAKLLNTKLTRVEYKRFPDNEIYVRIVDEINDDEAVIINTQKNQNDAIVETILLCDALRDEGVKKITLVAPYLAYARQDKKFNPGEAISIRALAKIYSNIVDKLITINPHETHIKDFFTIPFIYGDAVPKLAEYVKDKLNDPIVLAPDKGALEFAKTASKILNAEYDYLEKTRLSPTEIQIAPKTLDAKDRDVFIVDDIISTGGTMATAVKLLKEQGAKKIIAACVHPVLIGDALNKLYSAGVEEVVGTDTYLSEVSKVSVAEVIVDLL", "soluble on expression in E. coli": "soluble"},
      {"sequence": "MIYFIRKKKWLKQLEKGEAMKYAILIGDGMADYPIEKLGNRTILQAARTPAMDSIAARGRAGLAKTVPDSFPPGSDVANMSILGYDPATYYSGRAPLEAASMGVALAADDVAFRCNLITTEHGMIKDYSAGHISSDEAEILIDTLDYELSTENIRFYPGISYRHLIVAGNNLGAETECTPPHDITGEKIDKYLPRGKDGEFFSELIEASKVVLELHPVNLKRVEEGKNPANSIWVWGQGYAPKFTAFMKLYGKKGAVISAVDLLKGIGIYAGLDVIEVHGATGYLDTNYEGKVRAAIEALKTRDLVFVHVEAPDEAGHEGSIEKKLKAVEDFDSRIVAPILEYAENSDEPFTILVLPDHPTPISVKTHTRDPIPFAIYRTDKPETDNVEAFDEESVKNGSMGLVKASDLIGILIKSLEHHHHHH", "soluble on expression in E. coli": "soluble"},
      {"sequence": "MIYSMTAYARKEVKGDWGSAVWEIRSVNQRYLETYFRLPEQFRGLEPLLRERFRQRLSRGKIECHLRFEANPAAQSHLTINEGLAQQVINAANQIMHMTGELSRINPFQVMQWPGVMETPEQDMDAINQALLSAFDEGVDEFIAARGREGDNMKALIEQRLQAISAEVVKVRARMPEILEWQRERLFSKFEEAKIELDASRVEQELILLAQKSDVAEELDRLDSHVKEAREVLKKGGSCGRKLDFMMQEFNRESNTLASKSISTDITASGVELKVLIEQMREQIQNIE", "soluble on expression in E. coli": "not soluble"},
      {"sequence": "MKAERILGALYGQALGDAMGMPSELWPRTRVKAHFGWIDRFLPGPKENNAACYFNRAEFTDDTAMALCLADALLECEGNIDPEIIGRNILAWAERFDAFNKNVLGPTSKIALNAIRDGKPIAALENNGVTNGAAMRVSPLGCLLPPTNLTAFIAEVALASSPTHKSDLAVAGAVVVAWAVSRAVNGDTWQSIADSLPAVAHQAQTARITTFSASLSARLELALNIVRHADGVESASEQLYQIIGAGTSTIESVPCAIAMVELANTDPNRCAVLCANLGGDTDTIGAMATAICGALHGVSAINPQLKQTLDEVNQLDFARYAVALASYRQRREAL", "soluble on expression in E. coli": "not soluble"},
      {"sequence": "MKAICVLSGGLDSAVTSMFAKSKNYDISTVTFNYGQMALNQEIKSAKKISDILNADHHVIDINFVKEFSKSGLNTGNIPEPENEDLDDFEKSEKTMKAVWVPARNMIMFSIASGFAEGIGAEKIFSGLNKEEGVTFPDNTPEFIERFNKSLEYGTLNKVKMVAPLYELNKPEIAKLGKELELKLDLEVLKYSYSCYKDNGKDYLHCGTCESCMRRKRAFKEAGITDPTKYLVE", "soluble on expression in E. coli": "not soluble"},
      {"sequence": "MKAKAILLASVLLVGCQTSQNTGNVQQHAQSLSAAGQGEAGKFTSQARWMDDGTSIAPDQDLWAFIGDELKMGIPENSRIREQKQKYLRNKSYLHDVTLRAEPYMYWIAGQVKKRNMPMELVLLPIVESAFDPHATSGANAAGIWQIIPSTGRNYGLKQTRNYDARRDVVASTTAALDMMQRLNKMFDGDWLLTVAAYNSGEGRVMRAIKANKARGKPTDFWSLSLPRETKLYVPKMLALSEILKNSKRYGVRLPTTDESRALARVRLNSPVEMAQVADMAGMSISKLKTFNAGVKGSTLGVSGPQYVMVPKKHAEQLRESLASGEIDAVQSQLIADNTPLNSRSYKVRSGDTLSGIASRLGVSTKDLQQWNNLRGSRLKIGQSLTVGAGSSAQRLANNSDSITYRVRKGDSLSSIARRHGVNIKDVMRWNHDTDNLQPGDQLTLFVKDNSTPDSLEHHHHHH", "soluble on expression in E. coli": "soluble"},
      {"sequence": "MKAKPSHQATSMSSSLRVSPSIHGYHFDTAARKKAVGNIFENIDQESLQRLFRNSGDKKAEERAKIIFAIDQDLEEKTRALMALKKRTKDKLLQFLKLRKYSIKVH", "soluble on expression in E. coli": "not soluble"},
      {"sequence": "MKAKTDFFHMKQAGEPIVMVTAYDFPSAKLAEQAGVDMILVGDSLGMVVLGYDSTIPVTVDDMIHHTKAVRRGAPNTFIVTDMPFMSYHASKEEALQNARRIMQESGANAVKVEGADEVVDMIAALTKAGVPVVAHLGLTPQSVGVLGGYKVQGKDAESAKKLLDDAKQCEQAGAIALVLECVPKQLGAAMARELTIPVIGIGAGAEVDGQVLVYHDLLGYGVTRVPKFVKQYASIQETIVEALANYVADVKLRQFPEPAHTFTMKEEEWVALYGGKQG", "soluble on expression in E. coli": "not soluble"},
      {"sequence": "MKALRSSSRLSRWREWAAPLWVGCNFSAWMRLLIRNRFAVHHSRWHFAVLYTFLSMVNSCLGLWQKIVFGRRVAETVIADPPIFIVGHWRTGTTLLHELLVVDDRHTGPTGYECLAPHHFLLTEWFAPYVEFLVSKHRAMDNMDLSLHHPQEDEFVWCMQGLPSPYLTIAFPNRPPQYEEYLDLEQVAPRELEIWKRTLFRFVQQVYFRRRKTVILKNPTHSFRIKVLLEVFPQAKFIHIVRDPYVVYPSTIHLHKALYRIHGLQQPTFDGLDDKVVSTYVDLYRKLDEGRELVDPTRFYELRYEDLIGDPEGQLRRLYQHLGLGDFECYLPRLRQYLADHADYKTNSYQLTVEQRAIVDEHWGEIIDRYGYDRHTPEPARLRPAVGG", "soluble on expression in E. coli": "not soluble"},
      {"sequence": "MKALTTRQQEVYDLVRDHLAQTGMPPTRAEIAQRLGFRSPNAAEEHLKALARKGVIEIVSGASRGIRLLMEEEEGLPLIGRVAAGEPLLAQQHIEGHYKVDPSLFKPGADFLLRVNGMSMRDIGILDGDLLAVHKTQDVRNGQVVVARIDDEVTVKRLKKQGNIVHLLPENSEFQPIVVDLREQSFTIEGLAVGVIRNGDWI", "soluble on expression in E. coli": "not soluble"},
      {"sequence": "MKARIMYEAYFNLTTKPFELLPNPDFIFPSKSHKRALMYLDYGISERAGFILLTGDIGTGKTTLIRNMIQLKDERTIISRIFNTRVEPEQLLAMICHDFGIPAEGRGKVALLNELNDYLIEQFALGNRPVLIIDEAQNLSADLLEDIRLLSNLETSDTKLLQIVLVGQPELREVLALPQLLQLRQRISINCHISPLSREETEGYIFHRLDRAGNRNAVAFSSDALDIVYRYSRGIPRLVNIICDFILLSAFAEQTTEIPGEMVRDIIGDLDFENHYWGGAEVAASERAPEAARLAPGRSDEATELVATLRAVIDRLESLEGDFARMSRGVLDEMSEKVASLENAFRFHVDETDSHISEIRRRIEKVQNLEVGTTGECQPQDSPKGLLKRMFGALEHHHHHH", "soluble on expression in E. coli": "not soluble"},
      {"sequence": "MKAYLGLYTARLETPARSLKEKRALIKPALERLKARFPVSAARLYGLDAWGYEVVGFTLLGNDPAWVEETMRAAARFLAEAGGFQVALEEFRLEAFELDGLL", "soluble on expression in E. coli": "soluble"},
      {"sequence": "MKCPFCAHPDTRVADSRLMEERNAVRRRRHCPNCGKRFGTLETAELKMPAVIGPDKKRSPFNAQRLRNDLTAAARKSALTPEQIDETVRLTEHRLYTSGQRDIPSAALADMVLKELLRQDTEAAVRFAALHKRFDNPADFASWLAQAVKTGGKA", "soluble on expression in E. coli": "not soluble"},
      {"sequence": "MKCVEVHVIDSSAIFQRKAVYRNMVTVPEVVAEILDEASALYFSVKNFRVEEASPESVEEVKEAARKTGDIHKLSDTDIKVLAKALDEIKKGNEVVLVTDDYAIQNVAMSLGIRFDGILHRQISKEFKWVKVCRGCGRRIESEICPVCGSEAIIRRVKNDKNRNSG", "soluble on expression in E. coli": "not soluble"},
      {"sequence": "MKDVVDKCSTKGCAIDIGTVIDNDNCTSKFSRFFATREEAESFMTKLKELAAAASSADEGASVAYKIKDLEGQVELDAAFTFSCQAEMIIFELSLRSLALEHHHHHH", "soluble on expression in E. coli": "not soluble"},
      {"sequence": "MKDWFMNLLYYLKRPFIRLSRFRYRCGYGVHSPFAFSLITDVIYEKMPYYAYDLLKVEQKKRITTQRWEKGIPRINRLLFRLVNKVQPATIIEVGQPSAASLYLQSAKPSAGYLFASDLSELFLDADTPVDFLYLNDYRNPALLEEVFNICSRRTTPNSLFVVHGICYSKAMKNLWKQLQNDERVGITFDLYDAGLLFFDTTKIKQHYIVNF", "soluble on expression in E. coli": "not soluble"},
      {"sequence": "MKEDWYRKMYGPSASKTYETSLFNLITSEFGYIGGPDVVKLFTKKIVELNNQYYLREEFVRPGQMRWLVLKAGQKYSKSKKLSEMQLIPVTLTLINPEDIEDRITKVKKNELIEKLIVRLCNETKEQGGVLTETDIAILFRLSCTMISNHVTSYEKRTKKVIPRAGTEMDMGKSLTHKRLAFHNYKKKIPTSENARLIDHTPESVDRYIKDGTRIEKLYAAGYDEWNMAFFTGLPIYVVQEYVEIIKSYEKEKNDKKDIENQ", "soluble on expression in E. coli": "not soluble"},
      {"sequence": "MKEEIIIAGFGGQGVLSMGKILAYSGLMEGKEVTWMPAYGPEQRGGTANVTVIVSDDKISSPILSKYDTAIILNQPSLEKFESRVKPGGILIYDGYGIINPPTRKDIKVYRIDAMDAANEMNNAKAFNMIVLGGLLKLRPIVTLENVVKGLKKTLPERHHHLIPMNEEAIKKGMELIRE", "soluble on expression in E. coli": "not soluble"},
      {"sequence": "MKEKILLGGYTKRVSKGVYSVLLDTKAAELSSLNEVAAVQNPTYITLDEKGHLYTCAADSNGGGIAAFDFDGETATHLGNVTTTGAPLCYVAVDEARQLVYGANYHLGEVRVYKIQANGSLRLTDTVKHTGSGPRPEQASSHVHYSDLTPDGRLVTCDLGTDEVTVYDVIGEGKLNIATIYRAEKGMGARHITFHPNGKIAYLVGELNSTIEVLSYNEEKGRFARLQTISTLPEDYHGANGVAAIRISSDGKFLYTSNRGHDSLTTYKVSPLGTKLETIGWTNTEGHIPRDFNFNKTEDYIIVAHQESDNLSLFLRDKKTGTLTLEQKDFYAPEITCVLPLLEHHHHHH", "soluble on expression in E. coli": "not soluble"},
      {"sequence": "MKELIRKLTEAFGPSGREEEVRSIILEELEGHIDGHRIDGLGNLIVWKGSGEKKVILDAHIDEIGVVVTNVDDKGFLTIEPVGGVSPYMLLGKRIRFENGTIGVVGMEGETTEERQENVRKLSFDKLFIDIGANSREEAQKMCPIGSFGVYDSGFVEVSGKYVSKAMDDRIGCAVIVEVFKRIKPAVTLYGVFSVQEEVGLVGASVAGYGVPADEAIAIDVTDSADTPKAIKRHAMRLSGGPALKVKDRASISSKRILENLIEIAEKFDIKYQMEVLTFGGTNAMGYQRTREGIPSATVSIPTRYVHSPSEMIAPDDVEATVDLLIRYLGA", "soluble on expression in E. coli": "not soluble"},
      {"sequence": "MKELTNEELRGIQLEQLKYIDRICRENGIEYTLAGGSLIGAIRHGGYIPWDDDIDIELTRPHYDHLISVLMDQLPNEKYALLHYKVRETYLPFAKLYDTRTSFTSKIDNLNRGTGVFLDIFPMDILPDNEEERQVFKKEFLKKAIQLTASNPHGLDFASSSKKIYFWGKLVLWMPQHIRFYGKYRILAEKLDEFMQKYRNSDNQLISYLYTGYKKAIFPKEIWEEYEDVKFEGLTARKLKNHEEYLTRQYGDYMKLPPENERVNHDYYKWYWKEKNEILEHHHHHH", "soluble on expression in E. coli": "soluble"}
    ]}
  ]
}
